How the values were obtained:
EGFR 525-Fc (human) = EGFR 525-Fc (human) (UniProt P00533); assay: direct binding ELISA, single point; clone captured by anti-His, 50 nM receptor-Fc, anti-human Fc HRP
[1] = target: EGFR-Fc (R&D Systems), ectodomain of human EGFR as a Fc fusion (human) (UniProt P00533); assay: as above
[2] = target: T1, EGFR-Fc (R&D Systems), ectodomain of human EGFR as a Fc fusion (human, UniProt P00533 25-645); assay: as above
T1 construct: extracellular domain; Bought from R&D Systems; also called EGFR-FL-Fc; full length EGFR Fc fusion protein; not shown: Fc of the purchased fusion
Method: Proteins encoded by independent clones were analyzed for binding to the full length ectodomain of EGFR as well as a truncated version containing the first 525 amino acids (EGFR 525) of the EGFR ectodomain in single point direct binding assays. Anti-His antibodies were used to capture protein clones in an oriented fashion followed by incubation with full length EGFR or EGFR 525 Fc fusion proteins. Bound receptor-Fcs were detected via anti-human Fc HRP conjugate with a chromogenic readout (i.e. A450). […] The SGE control is the ¹⁰FN3 domain as shown in SEQ ID NO: 1 with the integrin binding domain (RGD) substituted with amino acids SGE.
The protein populations resulting from the above selections are expressed in E. coli as His6 tagged proteins. The direct binding ELISA relies on the oriented capture of His6 tagged clones onto anti-His monoclonal antibody plates (EMD Biosciences, San Diego, Calif.) blocked with casein block buffer (Pierce, Rockford, Ill.) for 1-2 hrs. Typically a 1:50 dilution of HTPP material (0.2-2 ug) is captured for 1 hr, followed by incubation with 50 nM of the EGFR-Fc targets. Bound EGFR-Fcs are detected by incubation with anti-human HRP. Bound HRP conjugate is detected using the colorimetric substrate TMB (BD Biosciences, San Jose, Calif.) following the manufacturer's instructions.

[3] = target: T2, EGFR on the surface of human A431 cells (human, UniProt P00533 25-1210); assay: competition with 10 nM Eu-EGF on A431 cells, time resolved fluorescence; Midscale preparation
T2 construct: whole, on cells; also called HER-1; EGF receptor on cells
Method: (§1) Human epithelial carcinoma cells, clone A431, which express large numbers of EGFRs on the cell surface, are plated into 96 well tissue culture plates and allowed to adhere for 48 hours. The cells are washed with serum free media and dilutions of the selected clones are incubated with the cells for 15 minutes, 37° C. in a humidified incubator in 5% CO₂. This incubation allows binding of the clone to the EGFR on the cell surface.

[4] = target: T2, EGFR on the surface of human A431 cells; assay: cell-based or functional assay
[5] = target: T2, EGFR on the surface of human A431 cells; assay: competition with 10 nM Eu-EGF on A431 cells, time resolved fluorescence; protein diluted in PBS buffer
Method: as §1

[6] = target: T2, EGFR on the surface of human A431 cells; assay: competition with 10 nM Eu-EGF on A431 cells, time resolved fluorescence; protein diluted in Tris buffer
Method: as §1

[7] = target: T2, EGFR on the surface of human A431 cells; assay: cell-based competitive ligand binding assay on A431 cells, competitor Eu-EGF, time-resolved fluorescence (RFUs); parameter C of the four-parameter fit y = ((A - D)/(1 + (x/C)^B)) + D, x axis in nM; the legend calls C the IC50 but prints 258.258
Method: as §1

Molecule	A450 (EGFR 525-Fc (human)) [A450]	A450 [2] [A450]	also measured
SGE control (10FN3 domain of SEQ ID NO: 1 with RGD substituted with SGE) (designed binder)	0.139		A450 [1]: 0.143 A450
679A05 (designed binder, 10Fn3-based clone expressed in E. coli as His6 tagged protein; not shown: His6 tag) VSDVPRDLEVVAATPTSLLISWARYAECGRYYRITYGETGGNSPVQEFTVPDVPWTATISGLKPGVDYTITVYAVTLGKPPLPGWVSGLDPISINYRT	1.72	1.43	
867C04 (designed binder, 10Fn3-based clone expressed in E. coli as His6 tagged protein; not shown: His6 tag) VSDVPRDLEVVAATPTSLLISWESKYVNYRYYRITYGETGGNSPVQEFTVPHLMTATISGLKPGVDYTITVYAVTVGGDHMYSSLPISINYRT	1.57	1.95	
679F03 (designed binder, 10Fn3-based clone expressed in E. coli as His6 tagged protein; not shown: His6 tag) VSDVPRDLEVVAATPTSLLISWYHYYSGSQRYYRITYGETGGNSPVQEFTVPHEVYTATISGLKPGVDYTITVYAVTDYAYKEYEEYPISINYRT	2.45	2.37	IC50 [3]: 26.8 nM
867E05 (designed binder, 10Fn3-based clone expressed in E. coli as His6 tagged protein; not shown: His6 tag) VSDVPRDLEVVAATPTSLLISWNRHAMASRYYRITYGETGGNSPVQEFTVPDVPFTATISGLKPGVDYTITVYAVTMSDKAMDMRTPSIGPISINYRT	1.68	1.72	
679A01 (designed binder, 10Fn3-based clone expressed in E. coli as His6 tagged protein; not shown: His6 tag) VSDVPRDLEVVAATPTSLLISWARYAGSDRYYRITYGETGGNSPVQEFTVPDVPFTATISGLKPGVDYTITVYAVTMGHAPTVDIHWTPSPISINYRT	1.53	1.57	
867B09 (designed binder, 10Fn3-based clone expressed in E. coli as His6 tagged protein; not shown: His6 tag) VSDVPRDLEVVAATPTSLLISWYLSHSYMRYYRITYGETGGNSPVQEFTVPVIHYTATISGLKPGVDYTITVYAVTSDKISVTVSGPISINYRT	2.41	2.77	
679F09 (designed binder, 10Fn3-based clone expressed in E. coli as His6 tagged protein; also called clone 679F09; not shown: His6 tag) VSDVPRDLEVVAATPTSLLISWQVPRPMYQRYYRITYGETGGNSPVQEFTVPGGVRTATISGLKPGVDYTITVYAVTDYMHSEYRQYPISINYRT	2.47	2.42	EGF-stimulated EGFR phosphorylation on tyrosine 1068, A431 cells (In Cell Western), IC50 [4]: 2800 nM; EGF-stimulated EGFR phosphorylation on tyrosine 1068, DiFi cells (ELISA), IC50 [4]: 1490 nM; EGF-stimulated EGFR phosphorylation on tyrosine 1068, FaDu cells (In Cell Western), IC50 [4]: 1300 nM; EGF-stimulated ERK phosphorylation, A431 cells (In Cell Western), IC50 [4]: 3100 nM; EGF-stimulated ERK phosphorylation, DiFi cells (ELISA), IC50 [4]: > 4000 nM; EGF-stimulated ERK phosphorylation, FaDu cells (In Cell Western), IC50 [4]: 2000 nM; EGF-stimulated total EGFR phosphorylation, A431 cells (In Cell Western), IC50 [4]: 2400 nM; EGF-stimulated total EGFR phosphorylation, DiFi cells (ELISA), IC50 [4]: 5300 nM; IC50 [3]: 14.7 nM; IC50 [5]: 13 nM; IC50 [6]: 20 nM
867H08 (designed binder, 10Fn3-based clone expressed in E. coli as His6 tagged protein; not shown: His6 tag) VSDVPRDLEVVAATPTSLLISWLRVPAYDRYYRITYGETGGNSPVQEFTVPDVPWTATISGLKPGVDYTITVYAVTLDESDMRVGVPISINYRT	1.79	1.9	
679C10 (designed binder, 10Fn3-based clone expressed in E. coli as His6 tagged protein; not shown: His6 tag) VSDVPRDLEVVAATPTSLLISWSRYAPGGRYYRITYGETGGNSPVQEFTVPDVPWTATISGLKPGVDYTITVYAVTLSNYEYLARNPISINYRT	0.803	0.467	
867C07 (designed binder, 10Fn3-based clone expressed in E. coli as His6 tagged protein; not shown: His6 tag) VSDVPRDLEVVAATPTSLLISWHSNYVDYRYYRITYGETGGNSPVQEFTVPHISDITATISGLKPGVDYTITVYAVTVEDMVRESYPPISINYRT	2.18	2.43	
679B01 (designed binder, 10Fn3-based clone expressed in E. coli as His6 tagged protein; not shown: His6 tag) VSDVPRDLEVVAATPTSLLISWLLLGAPCRYYRITYGETGGNSPVQEFTVPWMGLTATISGLKPGVDYTITVYAVTSERAPCVKVWRCPISINYRT	0.539	0.213	
867B10 (designed binder, 10Fn3-based clone expressed in E. coli as His6 tagged protein; not shown: His6 tag) VSDVPRDLEVVAATPTSLLISWKSVYVDYRYYRITYGETGGNSPVQEFTVPHSNLTATISGLKPGVDYTITVYAVTVYESYVANDSPISINYRT	2.55	2.96	
679A10 (designed binder, 10Fn3-based clone expressed in E. coli as His6 tagged protein; not shown: His6 tag) VSDVPRDLEVVAATPTSLLISWDRMLSFLRYYRITYGETGGNSPVQEFTVPLIYPTATISGLKPGVDYTITVYAVTVQLLDQCLRIHGPISINYRT	0.925	0.787	
867A03 (designed binder, 10Fn3-based clone expressed in E. coli as His6 tagged protein; not shown: His6 tag) VSDVPRDLEVVAATPTSLLISWTYRHYPERYYRITYGETGGNSPVQEFTVPDPDSTATISGLKPGVDYTITVYAVTYNHSSTPISINYRT	1.85	2.3	
867A05 (designed binder, 10Fn3-based clone expressed in E. coli as His6 tagged protein; not shown: His6 tag) VSDVPRDLEVVAATPTSLLISWYYRKYPGRYYRITYGETGGNSPVQEFTVPDEHTTATISGLKPGVDYTITVYAVTYDSPSQPISINYRT	1.61	1.87	
679B09 (designed binder, 10Fn3-based clone expressed in E. coli as His6 tagged protein; not shown: His6 tag) VSDVPRDLEVVAATPTSLLISWMRWYAPRRYYRITYGETGGNSPVQEFTVPFWQGTATISGLKPGVDYTITVYAVTRGQSGLGMPISINYRT	0.375	0.455	
867E02 (designed binder, 10Fn3-based clone expressed in E. coli as His6 tagged protein; not shown: His6 tag) VSDVPRDLEVVAATPTSLLISWIRRAKPGRYYRITYGETGGNSPVQEFTVPDVPWTATISGLKPGVDYTITVYAVTLDGVRRVGYLDHPISINYRT	1.43	1.42	
867F10 (designed binder, 10Fn3-based clone expressed in E. coli as His6 tagged protein; not shown: His6 tag) VSDVPRDLEVVAATPTSLLISWHNTYKDYRYYRITYGETGGNSPVQEFTVPHMAYNTATISGLKPGVDYTITVYAVTVTMQALLYSIPISINYRT	2.32	2.78	
679G06 (designed binder, 10Fn3-based clone expressed in E. coli as His6 tagged protein; not shown: His6 tag) VSDVPRDLEVVAATPTSLLISWYSDYYDNRYYRITYGETGGNSPVQEFTVPRYMMTATISGLKPGVDYTITVYAVTYSYHDPNPMMPISINYRT	0.128	2.1	
867B08 (designed binder, 10Fn3-based clone expressed in E. coli as His6 tagged protein; not shown: His6 tag) VSDVPRDLEVVAATPTSLLISWSGSYKSYRYYRITYGETGGNSPVQEFTVPHYDHATATISGLKPGVDYTITVYAVTVDYTAVQVSYPISINYRT	2.49	2.61	
867A01 (designed binder, 10Fn3-based clone expressed in E. coli as His6 tagged protein; not shown: His6 tag) VSDVPRDLEVVAATPTSLLISWQQQHTNYRYYRITYGETGGNSPVQEFTVPGRASTATISGLKPGVDYTITVYAVTEHPYYGDPPISINYRT	0.137	1.4	IC50 [7]: 258 nM
679B10 (designed binder, 10Fn3-based clone expressed in E. coli as His6 tagged protein; not shown: His6 tag) VSDVPRDLEVVAATPTSLLISWRLTAPLGRYYRITYGETGGNSPVQEFTVPDIPFTATISGLKPGVDYTITVYAVTLSDSAHGGLRDVPISINYRT	1.74	1.38	
